Test results as given in patent US20190375844A1 (OSE IMMUNOTHERAPEUTICS, published 2019).

T1: recombinant hCD127 (Sino Biologicals, reference 10975-H08H) (human, UniProt P16871 21-239)
T1 construct: Bought recombinant protein; In the Blitz assay the protein is said to be captured by an Fc fragment, and a second catalogue number (11612-H08H) is printed; also called human CD127 recombinant protein; recombinant human CD127
T1 chain: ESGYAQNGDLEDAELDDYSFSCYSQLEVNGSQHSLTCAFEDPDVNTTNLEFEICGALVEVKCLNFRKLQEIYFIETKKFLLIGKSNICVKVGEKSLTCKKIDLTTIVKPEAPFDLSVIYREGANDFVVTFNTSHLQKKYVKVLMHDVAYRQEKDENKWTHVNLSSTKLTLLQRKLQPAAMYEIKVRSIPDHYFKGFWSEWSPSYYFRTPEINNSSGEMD

T2: human CD127 (IL-7Rα) on human PBMC (human, UniProt P16871 21-459)
T2 chain: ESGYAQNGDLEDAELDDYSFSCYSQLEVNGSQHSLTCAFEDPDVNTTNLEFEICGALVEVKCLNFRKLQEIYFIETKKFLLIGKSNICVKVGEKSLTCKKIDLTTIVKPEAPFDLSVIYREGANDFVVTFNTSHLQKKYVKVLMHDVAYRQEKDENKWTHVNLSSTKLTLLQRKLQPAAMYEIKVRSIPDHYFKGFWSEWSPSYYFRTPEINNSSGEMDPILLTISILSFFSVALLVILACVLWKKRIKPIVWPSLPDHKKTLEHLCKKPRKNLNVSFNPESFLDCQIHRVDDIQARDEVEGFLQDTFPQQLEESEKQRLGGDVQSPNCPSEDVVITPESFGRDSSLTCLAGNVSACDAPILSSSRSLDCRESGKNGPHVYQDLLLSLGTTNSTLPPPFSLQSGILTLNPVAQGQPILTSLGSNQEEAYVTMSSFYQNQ

T3: recombinant hCD127 (Sino Biologicals, reference 10975-H08H) (human) (UniProt P16871)
T3 sequence: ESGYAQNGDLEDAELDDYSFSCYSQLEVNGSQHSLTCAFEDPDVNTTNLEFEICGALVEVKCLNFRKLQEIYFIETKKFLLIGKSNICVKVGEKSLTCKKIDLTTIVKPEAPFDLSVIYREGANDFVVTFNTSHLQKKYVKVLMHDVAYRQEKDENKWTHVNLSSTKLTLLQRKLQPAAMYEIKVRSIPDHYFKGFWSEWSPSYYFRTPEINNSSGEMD

B1: 1A11 (antibody, V domains shown)
VH: EVQLQQSGPELLKPGASMKISCKASGYSFTGYTMNWVKQSHGKNLEWIGLINPYNGVTSYNQKFKGKATLTVAKSSSTAYMELLSLTSEDSAVYYCARGDGNYWYFDVWGAGTTVTVSS
VL: EIVLTQSPAITAASLGQKVTITCSASSSVTYMHWYQQKSGTSPKPWIYEISKLASGVPVRFSGSGSGTSYSLTISSMEAEDAAIYYCQEWNYPYTFGGGTKLEIK
B2: N13B2-h3 (antibody, V domains shown)
VH: QVQLVESGGGLVKPGGSLRLSCAVSGFTLSDYYMAWIRQAPGKGLEWVSTISASGLRTYYPDSVKGRFTISRDNAKNSLYLQMNSLRAEDTAVYYCARPLSAHYGFNYFDYWGQGTLVTVSS
VL: EIVMTQSPATLSVSPGERATLSCRTSEDIYQGLAWYQQKPGQAPRLLIYSANTLHIGIPARFSGSGSGTEFTLTISSLQSEDFAVYYCQQYYDYPLAFGGGTKVEIKR
notes: also called humanized N13B2 of WO 2015/189302
B3: N13B2-hVL3 (antibody, V domains shown)
VH: QVQLVESGGGLVKPGGSLRLSCAVSGFTLSDYYMAWIRQAPGKGLEWVSTISASGLRTYYPDSVKGRFTISRDNAKNSLYLQMNSLRAEDTAVYYCARPLSAHYGFNYFDYWGQGTLVTVSS
VL: DIQMTQSPSSLSASVGDRVTITCRTSEDIYQGLAWYQQKPGKAPKLLVYSANTLHIGVPSRFSGSGSGTDYTLTISSLQPEDFATYFCQQYYDYPLAFGGGTKVEIKR
B4: N13B2-hVL5 (antibody, V domains shown)
VH: QVQLVESGGGLVKPGGSLRLSCAVSGFTLSDYYMAWIRQAPGKGLEWVSTISASGLRTYYPDSVKGRFTISRDNAKNSLYLQMNSLRAEDTAVYYCARPLSAHYGFNYFDYWGQGTLVTVSS
VL: DIQMTQSPSSLSASVGDRVTITCRTSEDIYQGLAWYQQKPGKAPKLLVYSANTLHIGVPSRFSGSGSGTDYTLTISSLQPEDFATYYCQQYYDYPLAFGGGTKVEIKR
notes: also called N13B2-VL5-F87Y
B5: N13B2-hVL4 (antibody, V domains shown)
VH: QVQLVESGGGLVKPGGSLRLSCAVSGFTLSDYYMAWIRQAPGKGLEWVSTISASGLRTYYPDSVKGRFTISRDNAKNSLYLQMNSLRAEDTAVYYCARPLSAHYGFNYFDYWGQGTLVTVSS
VL: DIQMTQSPSSLSASVGDRVTITCRTSEDIYQGLAWYQQKPGKAPKLLLYSANTLHIGVPSRFSGSGSGTDYTLTISSLQPEDFATYFCQQYYDYPLAFGGGTKVEIKR
notes: also called N13B2-VL4-V48L
B6: N13B2-hVL6 (antibody, V domains shown)
VH: QVQLVESGGGLVKPGGSLRLSCAVSGFTLSDYYMAWIRQAPGKGLEWVSTISASGLRTYYPDSVKGRFTISRDNAKNSLYLQMNSLRAEDTAVYYCARPLSAHYGFNYFDYWGQGTLVTVSS
VL: DIQMTQSPSSLSASVGDRVTITCRTSEDIYQGLAWYQQKPGKAPKLLLYSANTLHIGVPSRFSGSGSGTDYTLTISSLQPEDFATYYCQQYYDYPLAFGGGTKVEIKR
notes: also called N13B2-h3VL6; N13B2-VL6-V48L-F87Y
B7: MD707-13 (antibody, from another filing, human IgG4, V domains shown)
VH: QLKESGPGLVQPSQTLSLTCTVSGLSLPNNNIAWIRQSPGKGLEWMGVIWSNGDTDYNSAIRSRLSISRDSSKSQVFLRMNSLQSEDTAMYFCAREGMTTLDYWGQGVVVTVSS
VL: EIVLTQSPTTMAASPGEKVTITCRASSSVSYMHWFQQKSGSSPKPWIYDSSDLASGVPDRFSGSGSGTSYSLTISSMEAEDAATYYCLQRSSYPRTFGGGTKLELKR

Key:
[1] = target: T1, recombinant hCD127 (Sino Biologicals, …); assay: method not stated
[2] = target: T2, human CD127 (IL-7Rα) on human PBMC; assay: cell-based or functional assay
[3] = target: T1, recombinant hCD127 (Sino Biologicals, …); assay: ELISA, hCD127 immobilized on plastic at 1 µg/ml (given as ED50)
Experimental: (§1) For activity ELISA assay, recombinant hCD127 (Sino Biologicals, Beijing, China; reference 10975-H08H) was immobilized on plastic at 1 μg/ml and dilutions of anti-CD127 antibody were added to measure binding.

[4] = target: T1, recombinant hCD127 (Sino Biologicals, …); assay: Blitz (BLI), hCD127 captured on anti-human IgG Fc (AHC) biosensor, antibody at 20 µg/mL
Experimental: Recombinant hCD127 (Sino Biologicals, Beijing, China; reference 10975-H08H)/recombinant protein (Sino Biological Cat: 11612-H08H) was immobilized at 50 μg/ml by Fc fragment into anti-human IgG Fc (AHC) biosensor (Forte Bio, 18-5063) for 30 seconds. Then, anti-CD127 antibodies were added at 20 μg/mL (saturating concentration) for an association period of 120 seconds, followed by a dissociation period of anti-CD127 antibody in kinetics buffer for 120 seconds. Data analysis was made with the Blitz pro 1.2 software, which calculated association constant (ka) and dissociation constant (kd) and determined the affinity constant KD […].

[5] = target: T1, recombinant hCD127 (Sino Biologicals, …); assay: ELISA on CD127 after storage of the antibody 30 days at 4° C. (given as ED50)
Experimental: as §1
(§2) Stability of the antibodies was studies by incubating the antibodies for 7, 14, or 30 days at 4° C., 25° C. and 42° C.

[6] = target: T1, recombinant hCD127 (Sino Biologicals, …); assay: ELISA on CD127 after storage of the antibody 14 days at 25° C. (given as ED50)
Experimental: as §1, §2

[7] = target: T1, recombinant hCD127 (Sino Biologicals, …); assay: ELISA on CD127 after storage of the antibody 30 days at 25° C. (given as ED50)
Experimental: as §1, §2

[8] = target: T1, recombinant hCD127 (Sino Biologicals, …); assay: ELISA on CD127 after storage of the antibody 30 days at 42° C. (given as ED50)
Experimental: as §1, §2

[9] = target: T1, recombinant hCD127 (Sino Biologicals, …); assay: ELISA on CD127 after storage of the antibody 7 days at 42° C. (given as ED50)
Experimental: as §1, §2

[10] = target: T1, recombinant hCD127 (Sino Biologicals, …); assay: ELISA on CD127 after storage of the antibody 7 days at 25° C. (given as ED50)
Experimental: as §1, §2

[11] = target: T1, recombinant hCD127 (Sino Biologicals, …); assay: ELISA on CD127 after storage of the antibody 7 days at 4° C. (given as ED50)
Experimental: as §1, §2

[12] = target: T1, recombinant hCD127 (Sino Biologicals, …); assay: ELISA on CD127 after storage of the antibody 14 days at 4° C. (given as ED50)
Experimental: as §1, §2

[13] = target: T1, recombinant hCD127 (Sino Biologicals, …); assay: ELISA on CD127 after storage of the antibody 14 days at 42° C. (given as ED50)
Experimental: as §1, §2

[14] = target: T3, recombinant hCD127 (Sino Biologicals, reference 10975-H08H) (human); assay: method not stated

Binder	IC50-MFI, inhibition of IL7-induced STAT5 phosphorylation in CD3+ human PBMC [2]	EC50 [3]	Kd [4]	koff [4]	kon [4]	other results
B1	–	–	–	–	–	Kd [1]: 0.6 nM
B2	0.0215 µg/mL	0.0168 µg/mL	2.33 nM	0.00267 s⁻¹	1.15e+06 M⁻¹ s⁻¹	–
B3	0.0272 µg/mL	–	–	–	–	–
B4	0.0273 µg/mL	0.0148 µg/mL	2.63 nM	0.00266 s⁻¹	1.01e+06 M⁻¹ s⁻¹	–
B5	0.0161 µg/mL	0.0126 µg/mL	2.71 nM	0.00281 s⁻¹	1.04e+06 M⁻¹ s⁻¹	–
B6	0.0168 µg/mL	0.0095 µg/mL	2.53 nM	0.00266 s⁻¹	1.05e+06 M⁻¹ s⁻¹	EC50 [5]: 0.047 µg/mL; EC50 [6]: 0.0526 µg/mL; EC50 [7]: 0.0402 µg/mL; EC50 [8]: 0.0587 µg/mL; EC50 [9]: 0.0562 µg/mL; Kd [1]: 0.2 nM; EC50 [10]: 0.0478 µg/mL; EC50 [11]: 0.0553 µg/mL; EC50 [12]: 0.0628 µg/mL; EC50 [13]: 0.0406 µg/mL
B7	–	–	–	–	–	Kd [14]: 0.5 nM
